According to article PMC11298625, “MdVQ17 negatively regulates apple resistance to Glomerella leaf spot by promoting MdWRKY17-mediated salicylic acid degradation and pectin lyase activity”:

B1: MdPL-like-P3 probe (dsDNA)
DNA 1: AGTTGACCATTGACCGTTGACTGAGTCAACAGTCAAGGTCAACT
DNA 2: AGTTGACCTTGACTGTTGACTCAGTCAACGGTCAATGGTCAACT
B2: MdPL-like-P2 probe (dsDNA)
DNA 1: AAGTCAACTAAAAAAGTCAACGTCTGACCGTTGACTGGTCAAAG
DNA 2: CTTTGACCAGTCAACGGTCAGACGTTGACTTTTTTAGTTGACTT
B3: MdDMR6 probe (dsDNA)
DNA 1: ATATTGTTTTCTGCATTTTTGACTTAATTTTTATAAATTAA
DNA 2: TTAATTTATAAAAATTAAGTCAAAAATGCAGAAAACAATAT
B4: MdPL-like-P1 probe (dsDNA)
DNA 1: AGGAGTACCTTTGGTCAAACTATATTCAAA
DNA 2: TTTGAATATAGTTTGACCAAAGGTACTCCT

Target: MdWRKY17 (Malus x domestica, UniProt A0A9E6GT21 1-512)
Test: EMSA; Chemiluminescent EMSA Kit (Beyotime); buffer, salt, pH and temperature not stated
Conditions: protein: recombinant; tags: His (pET32a); label: biotin; blunt

Sequence of MdWRKY17 (A0A9E6GT21 entry or part of it): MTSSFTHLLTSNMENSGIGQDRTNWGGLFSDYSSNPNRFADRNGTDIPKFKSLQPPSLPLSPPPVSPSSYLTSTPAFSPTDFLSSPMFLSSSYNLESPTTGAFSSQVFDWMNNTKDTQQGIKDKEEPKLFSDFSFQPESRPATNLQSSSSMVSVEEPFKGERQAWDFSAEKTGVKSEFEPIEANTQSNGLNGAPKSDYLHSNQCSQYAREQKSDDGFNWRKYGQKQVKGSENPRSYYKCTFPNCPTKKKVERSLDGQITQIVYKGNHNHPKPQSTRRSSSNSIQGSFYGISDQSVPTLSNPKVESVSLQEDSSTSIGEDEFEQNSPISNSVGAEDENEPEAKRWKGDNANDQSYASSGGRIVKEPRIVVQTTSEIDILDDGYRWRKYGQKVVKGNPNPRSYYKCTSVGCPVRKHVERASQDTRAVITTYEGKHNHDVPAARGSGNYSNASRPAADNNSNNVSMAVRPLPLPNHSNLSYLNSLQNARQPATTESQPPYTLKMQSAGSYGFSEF

Binding result, binds:
B1, B2, B3, B4
